The term EC50 (read off the curve) denotes the concentration that produces a half-maximal response.

Assay [1] has as its target constitutively active human NPR1 mutant (W74R) (human) (UniProt P16066). Briefly: ELISA, IgG titrated on coated antigen, fluorescence [Cont.].
The target is the same in assay [2]. In words: ELISA, 1 µM IgG. Background: In an ELISA, binding on a coated surface is turned into a signal by an enzyme label.
The target of assay [3] is W74R hNPR1 mutant in the presence of ANP (human) (UniProt P01160). In words: ELISA, 1 µM IgG.
Assay [4] concerns the target T1, human NPR3 (counter target) (human, UniProt P17342 27-481, limits assumed).
T1 construct: Pannings used hNPR3-hFc; also called hNPR3; hNPR3-hFc
T1 sequence (looked up): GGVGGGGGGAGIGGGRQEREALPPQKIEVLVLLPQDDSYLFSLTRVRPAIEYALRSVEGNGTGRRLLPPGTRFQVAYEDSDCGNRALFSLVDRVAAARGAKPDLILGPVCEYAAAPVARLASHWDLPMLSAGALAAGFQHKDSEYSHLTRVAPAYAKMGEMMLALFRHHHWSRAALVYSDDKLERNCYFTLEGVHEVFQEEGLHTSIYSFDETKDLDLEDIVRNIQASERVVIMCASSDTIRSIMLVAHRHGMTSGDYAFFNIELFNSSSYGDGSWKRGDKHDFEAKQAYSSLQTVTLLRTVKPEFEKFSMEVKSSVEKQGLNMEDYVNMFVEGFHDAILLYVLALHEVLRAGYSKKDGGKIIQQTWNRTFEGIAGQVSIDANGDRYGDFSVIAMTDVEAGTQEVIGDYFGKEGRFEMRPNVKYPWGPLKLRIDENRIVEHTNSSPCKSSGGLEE
In words: ELISA, 1 µM IgG. On the set-up: unit not given here.

The target of assay [5] is T2, human NPR3 in the presence of ANP (human, UniProt P17342 27-481; P01160 124-151, limits assumed).
T2 construct: also called hNPR3 + 100 nM ANP
T2 sequence (looked up): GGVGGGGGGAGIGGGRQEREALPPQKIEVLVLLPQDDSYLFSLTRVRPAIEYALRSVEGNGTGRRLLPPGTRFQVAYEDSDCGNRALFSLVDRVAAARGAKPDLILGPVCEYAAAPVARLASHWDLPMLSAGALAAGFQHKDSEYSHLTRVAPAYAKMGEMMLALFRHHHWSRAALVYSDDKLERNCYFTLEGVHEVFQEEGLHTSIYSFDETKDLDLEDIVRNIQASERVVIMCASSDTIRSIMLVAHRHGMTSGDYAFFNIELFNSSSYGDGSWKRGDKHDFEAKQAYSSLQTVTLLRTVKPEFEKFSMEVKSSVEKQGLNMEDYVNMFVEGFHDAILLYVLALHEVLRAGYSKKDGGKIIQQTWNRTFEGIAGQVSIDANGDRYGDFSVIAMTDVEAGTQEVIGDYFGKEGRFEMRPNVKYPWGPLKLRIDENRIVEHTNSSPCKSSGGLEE
T2 sequence (peptide, looked up): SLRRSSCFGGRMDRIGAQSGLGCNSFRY
Briefly: ELISA, 1 µM IgG. On the set-up: unit not given here.

Assay [6] has as its target T3, human Natriuretic Peptide Receptor 1 (hNPR1) (human, UniProt P16066 33-473, limits assumed).
T3 construct: pannings used NPR1-hFc; also called NPR1-hFc
T3 sequence: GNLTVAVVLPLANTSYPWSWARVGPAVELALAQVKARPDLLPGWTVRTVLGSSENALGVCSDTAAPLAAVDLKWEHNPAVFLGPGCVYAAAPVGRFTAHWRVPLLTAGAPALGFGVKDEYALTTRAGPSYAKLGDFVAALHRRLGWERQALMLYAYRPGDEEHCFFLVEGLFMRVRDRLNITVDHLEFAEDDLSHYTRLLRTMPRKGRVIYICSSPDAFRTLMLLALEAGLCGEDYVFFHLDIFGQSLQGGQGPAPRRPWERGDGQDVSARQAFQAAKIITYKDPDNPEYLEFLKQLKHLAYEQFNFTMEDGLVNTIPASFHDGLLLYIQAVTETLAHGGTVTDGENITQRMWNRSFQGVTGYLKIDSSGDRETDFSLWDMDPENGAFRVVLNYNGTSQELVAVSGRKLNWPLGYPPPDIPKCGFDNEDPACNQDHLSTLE
Briefly: ELISA, 1 µM IgG. On the set-up: unit not given here.

The target of assay [7] is T4, rat NPR1 (rNPR1) (rat, UniProt P18910 29-469, limits assumed).
T4 construct: Soluble antigen
T4 sequence: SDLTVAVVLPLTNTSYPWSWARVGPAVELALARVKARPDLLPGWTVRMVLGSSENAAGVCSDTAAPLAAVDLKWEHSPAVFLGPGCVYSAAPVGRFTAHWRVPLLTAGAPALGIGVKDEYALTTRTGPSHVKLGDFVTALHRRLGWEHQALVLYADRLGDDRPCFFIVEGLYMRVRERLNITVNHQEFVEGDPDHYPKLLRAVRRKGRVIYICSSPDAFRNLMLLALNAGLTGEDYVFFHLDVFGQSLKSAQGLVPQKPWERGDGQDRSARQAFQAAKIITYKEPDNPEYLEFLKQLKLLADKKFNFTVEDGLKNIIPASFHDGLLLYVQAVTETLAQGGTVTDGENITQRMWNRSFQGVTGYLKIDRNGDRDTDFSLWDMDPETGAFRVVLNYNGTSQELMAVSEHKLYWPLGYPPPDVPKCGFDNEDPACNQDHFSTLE
Briefly: ELISA, 1 µM IgG. On the set-up: unit not given here.

For assay [8], the target named is T5, rNPR1-ANP complex (rat, UniProt P01160 124-151 (human entry), limits assumed).
T5 construct: rNPR1 antigen in the presence of ANP; also called rNPR1 + 100 nM ANP
T5 sequence: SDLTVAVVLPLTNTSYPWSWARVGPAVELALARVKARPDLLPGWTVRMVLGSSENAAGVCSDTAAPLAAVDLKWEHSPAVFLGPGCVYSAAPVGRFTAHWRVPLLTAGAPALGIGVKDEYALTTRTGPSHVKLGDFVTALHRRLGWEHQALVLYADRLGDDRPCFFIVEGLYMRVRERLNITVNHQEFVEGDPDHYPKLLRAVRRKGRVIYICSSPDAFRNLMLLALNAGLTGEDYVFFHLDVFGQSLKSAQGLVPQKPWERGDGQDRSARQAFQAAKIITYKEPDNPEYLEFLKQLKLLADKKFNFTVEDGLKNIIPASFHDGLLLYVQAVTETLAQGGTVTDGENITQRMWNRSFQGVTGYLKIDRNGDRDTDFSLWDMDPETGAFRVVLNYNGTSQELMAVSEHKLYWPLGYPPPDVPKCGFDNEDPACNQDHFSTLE
T5 sequence (peptide): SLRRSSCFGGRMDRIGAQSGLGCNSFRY
Briefly: ELISA, 1 µM IgG. On the set-up: unit not given here.

Assay [9] deals with T6, hNPR1-ANP complex (human, UniProt P01160 124-151, limits assumed).
T6 construct: hNPR1 antigen in the presence of ANP; also called hNPR1 + 100 nM ANP
T6 sequence: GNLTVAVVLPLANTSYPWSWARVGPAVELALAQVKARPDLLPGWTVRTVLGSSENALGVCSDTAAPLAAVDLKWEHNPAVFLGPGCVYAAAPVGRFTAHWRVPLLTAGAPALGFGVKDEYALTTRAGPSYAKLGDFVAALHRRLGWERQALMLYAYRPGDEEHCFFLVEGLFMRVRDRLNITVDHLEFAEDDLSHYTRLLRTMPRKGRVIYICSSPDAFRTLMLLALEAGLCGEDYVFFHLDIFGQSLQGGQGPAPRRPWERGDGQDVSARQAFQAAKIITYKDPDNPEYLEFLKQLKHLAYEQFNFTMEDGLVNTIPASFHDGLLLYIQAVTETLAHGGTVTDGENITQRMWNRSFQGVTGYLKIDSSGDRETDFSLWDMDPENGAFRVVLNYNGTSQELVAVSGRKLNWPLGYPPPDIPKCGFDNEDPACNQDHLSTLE
T6 sequence (peptide): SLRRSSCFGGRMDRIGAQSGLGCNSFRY
Briefly: ELISA, 1 µM IgG. On the set-up: unit not given here.

For assay [10], the target named is T7, human NPR1 on CHO-K1 cells (human, UniProt P16066 33-1061).
T7 construct: also called hNPR1 CHO K1; human NPR1 expressing CHO-K1 cells
T7 sequence: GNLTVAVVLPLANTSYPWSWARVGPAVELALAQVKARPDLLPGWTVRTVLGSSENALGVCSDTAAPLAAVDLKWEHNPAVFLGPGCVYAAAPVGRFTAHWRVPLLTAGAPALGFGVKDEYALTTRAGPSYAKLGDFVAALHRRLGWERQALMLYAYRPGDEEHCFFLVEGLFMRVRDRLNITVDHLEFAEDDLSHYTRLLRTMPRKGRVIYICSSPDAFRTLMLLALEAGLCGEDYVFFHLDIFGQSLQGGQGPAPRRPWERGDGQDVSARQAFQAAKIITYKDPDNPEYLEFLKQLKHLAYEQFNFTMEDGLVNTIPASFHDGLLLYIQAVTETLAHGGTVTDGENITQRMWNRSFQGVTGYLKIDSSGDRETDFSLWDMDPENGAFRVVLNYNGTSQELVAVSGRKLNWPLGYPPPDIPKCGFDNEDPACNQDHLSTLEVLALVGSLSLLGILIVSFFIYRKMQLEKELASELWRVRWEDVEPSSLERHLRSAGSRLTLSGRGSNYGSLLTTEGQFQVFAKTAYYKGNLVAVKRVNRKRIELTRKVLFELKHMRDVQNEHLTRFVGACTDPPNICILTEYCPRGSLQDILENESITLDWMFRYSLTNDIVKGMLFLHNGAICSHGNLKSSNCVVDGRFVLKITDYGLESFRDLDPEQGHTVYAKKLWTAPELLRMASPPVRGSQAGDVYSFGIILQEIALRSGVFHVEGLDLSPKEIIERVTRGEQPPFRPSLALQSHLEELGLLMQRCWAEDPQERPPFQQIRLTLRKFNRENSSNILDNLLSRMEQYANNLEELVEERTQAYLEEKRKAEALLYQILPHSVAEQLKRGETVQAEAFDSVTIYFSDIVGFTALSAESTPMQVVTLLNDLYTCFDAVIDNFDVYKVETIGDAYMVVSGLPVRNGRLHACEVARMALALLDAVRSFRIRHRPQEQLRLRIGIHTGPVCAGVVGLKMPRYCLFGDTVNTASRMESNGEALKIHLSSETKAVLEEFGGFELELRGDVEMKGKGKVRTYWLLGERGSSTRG
Briefly: flow cytometry, hNPR1 CHO-K1 cells, IgG. A general note: A flow cytometer gives signals particle by particle.

Assay [11] addresses T8, human NPR1 on CHO-K1 cells in the presence of ANP (human, UniProt P01160 124-151).
T8 construct: also called hNPR1 CHO K1 + 100 nM ANP
T8 sequence: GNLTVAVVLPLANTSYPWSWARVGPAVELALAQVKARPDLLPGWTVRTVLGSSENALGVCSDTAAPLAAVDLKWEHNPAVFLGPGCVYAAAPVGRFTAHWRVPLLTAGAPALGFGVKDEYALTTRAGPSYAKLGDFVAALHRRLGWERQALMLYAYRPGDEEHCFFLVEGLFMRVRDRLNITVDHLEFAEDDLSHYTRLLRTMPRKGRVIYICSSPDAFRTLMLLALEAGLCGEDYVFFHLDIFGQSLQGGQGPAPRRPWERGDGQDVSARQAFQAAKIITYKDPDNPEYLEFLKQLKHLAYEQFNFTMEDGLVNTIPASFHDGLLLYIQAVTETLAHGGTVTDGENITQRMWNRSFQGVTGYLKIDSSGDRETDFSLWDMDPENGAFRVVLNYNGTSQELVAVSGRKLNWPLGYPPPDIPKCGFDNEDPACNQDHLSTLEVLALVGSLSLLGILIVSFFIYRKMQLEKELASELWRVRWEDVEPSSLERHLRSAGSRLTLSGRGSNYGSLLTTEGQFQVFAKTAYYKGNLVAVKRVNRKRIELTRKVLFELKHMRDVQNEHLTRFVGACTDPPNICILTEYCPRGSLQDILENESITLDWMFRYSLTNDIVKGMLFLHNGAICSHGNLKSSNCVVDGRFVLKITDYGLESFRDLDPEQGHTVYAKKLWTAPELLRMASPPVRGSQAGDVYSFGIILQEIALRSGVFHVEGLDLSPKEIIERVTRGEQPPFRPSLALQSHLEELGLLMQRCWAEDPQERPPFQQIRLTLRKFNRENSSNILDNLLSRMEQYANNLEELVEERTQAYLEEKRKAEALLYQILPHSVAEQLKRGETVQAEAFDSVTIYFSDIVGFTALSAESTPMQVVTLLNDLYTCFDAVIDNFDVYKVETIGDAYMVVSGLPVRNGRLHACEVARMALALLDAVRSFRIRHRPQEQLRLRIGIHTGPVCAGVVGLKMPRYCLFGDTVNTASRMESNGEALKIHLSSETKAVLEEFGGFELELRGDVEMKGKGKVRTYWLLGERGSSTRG
T8 sequence (peptide): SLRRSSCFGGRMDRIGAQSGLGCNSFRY
In words: flow cytometry, hNPR1 CHO-K1 cells, IgG.

Assay [12] addresses T7, human NPR1 on CHO-K1 cells. In words: cell-based or functional assay.

B1: YY05 (IgG format) (antibody, V domains shown)
VH: EVQLVQSGAEVKKPGESLKISCKGSGYSFTSYWISWVRQMPGKGLEWMGIIYPGTSYTRYSPSFQGQVTISADKSISTAYLQWSSLKASDTAMYYCARGAVAGQLGFDHWGQGTLVTVSS
VL: QSVLTQPPSVSGAPGQRVTISCTGSSSNIGAGYDVHWYQQLPGTAPKLLIYGNSNRPSGVPDRFSGSKSGTSASLAITGLQAEDEADYYCQSYYTSSHGPVFGGGTKLTVLG
notes: also called YY05_LALA
Take B1: the EC50 (read off the curve) in [1] is 1 nM. The ELISA binding at 1 µM IgG was 69 in assay [2]; 23 in assay [3]; 7 in [4]; 4 in [5]; 81 in [6]; 11 in assay [7]. The “ELISA binding at 1 µM IgG” value is 16 in assay [8] and 32 in assay [9]. In addition, the “flow cytometry S/BG at 1 µM IgG” value in assay [10] is 15 S/BG; in assay [11], 5 S/BG. Also, the “cGMP conc [nM] at 1 µM IgG, +0.075 nM ANP” value in [12] amounted to 15 nM. Besides, the “cGMP conc [nM] at 1 µM IgG, without ANP” value in assay [12] was found to be 13 nM.

The values above are taken from patent US20240052042A1 (Novartis, published 2024).
